For the series, the target named is His-CcpA (nonphosphorylated) (Streptococcus pneumoniae D39) (UniProt A0A0H2ZQ65). Kind of series: EMSA.

“CTTTCTGTGAACGTGATTTTTTAAAACGTCTACTCATGATTAACACCTATACATTGAACATCTTACGATTATATCACTTTTTTACGGTAATGTCTACACCTTTTTTCACTATCTGCATCTTTAAGTATCTTAGTAGACTTCCCGCGAACCAAAAATATAGTAAAATGAAATAAGAACATGACAAATTGATCAGGACAGTCAAATCGTTTTCTAACAATATTTTAGAAGCAGATGTGTACTATTCTAGTTTCAATATAATATAGTACACAATGTGGTATAATCTTTTT (double strand) [Pcps2A (-250/+35)]”: the binding result is “binds”.

Source of the values: PMC10112228.
